Data as given in patent publication US10047131B2, “Peptides and combination of peptides for use in immunotherapy against ovarian cancer and other cancers” (immatics biotechnologies GmbH, priority 2015, dated 2018).

biological target: HLA-A*02:01 (Homo sapiens, UniProt P04439, D140Y/D185E/D98H/E176V/E277Q/G131W/G231S/I119V/I121R/I166T/I218V/L300P/L318F/N151K/N90K/P208A/P217A/Q86G/Q94H/R138H/R169H/T345S); assay: MHC binding assay (UV-ligand exchange, ELISA of exchange yield); settings: binding to HLA-A*02:01, UV-ligand exchange
From the text: Candidate peptides for T cell based therapies according to the present invention were further tested for their MHC binding capacity (affinity). The individual peptide-MHC complexes were produced by UV-ligand exchange, where a UV-sensitive peptide is cleaved upon UV-irradiation, and exchanged with the peptide of interest as analyzed. Only peptide candidates that can effectively bind and stabilize the peptide-receptive MHC molecules prevent dissociation of the MHC complexes. To determine the yield of the exchange reaction, an ELISA was performed based on the detection of the light chain (p2m) of stabilized MHC complexes. The assay was performed as generally described in Rodenko et al. (Rodenko et al., 2006).
96 well MAXISorp plates (NUNC) were coated over night with 2 μg/ml streptavidin in PBS at room temperature, washed 4× and blocked for 1 h at 37° C. in 2% BSA containing blocking buffer. […] Peptide-MHC monomers of the UV-exchange reaction were diluted 100 fold in blocking buffer. Samples were incubated for 1h at 37° C., washed four times, incubated with 2 μg/ml HRP conjugated anti-β2m for 1h at 37° C., washed again and detected with TMB solution that is stopped with […]. Absorption was measured at 450 nm. Candidate peptides that show a high exchange yield (preferably higher than 50%, most preferred higher than 75%) are generally preferred for a generation and production of antibodies or fragments thereof, and/or T cell receptors or fragments thereof, as they show sufficient avidity to the MHC molecules and prevent dissociation of the MHC complexes.

| Peptide exchange (MHC class I binding score, peptide exchange yield) | Substance |
| --- | --- |
| “+++” (≥50 = +++) | 1 (SLMEPPAVLLL; listed as Homo sapiens) [compound 1] |
| “+++” (≥50 = +++) | 2 (SLLEADPFL; listed as Homo sapiens) [compound 2] |
| “++++” (≥75% = ++++) | 3 (SLASKLTTL; listed as Homo sapiens) [compound 3] |
| “++++” (≥75% = ++++) | 4 (GIMEHITKI; listed as Homo sapiens) [compound 4] |
| “+++” (≥50 = +++) | 5 (HLTEVYPEL; listed as Homo sapiens) [compound 5] |
| “+++” (≥50 = +++) | 6 (VLVSDGVHSV; listed as Homo sapiens) [compound 6] |
| “++++” (≥75% = ++++) | 7 (SLVGLLLYL; listed as Homo sapiens) [compound 7] |
| “++++” (≥75% = ++++) | 8 (FTLGNVVGMYL; listed as Homo sapiens) [compound 8] |
| “++” (≥20% = ++) | 9 (GAAKDLPGV; listed as Homo sapiens) [compound 9] |
| “++++” (≥75% = ++++) | 10 (FLATFPLAAV; listed as Homo sapiens) [compound 10] |
| “+++” (≥50 = +++) | 11 (KIFEMLEGV; listed as Homo sapiens) [compound 11] |
| “+++” (≥50 = +++) | 12 (SLWPDPMEV; listed as Homo sapiens) [compound 12] |
| “+++” (≥50 = +++) | 13 (YLMDESLNL; listed as Homo sapiens) [compound 13] |
| “+++” (≥50 = +++) | 14 (AAYGGLNEKSFV; listed as Homo sapiens) [compound 14] |
| “++” (≥20% = ++) | 15 (VLLTFKIFL; listed as Homo sapiens) [compound 15] |
| “+++” (≥50 = +++) | 16 (VLFQGQASL; listed as Homo sapiens) [compound 16] |
| “+++” (≥50 = +++) | 17 (GLLPGDRLVSV; listed as Homo sapiens) [compound 17] |
| “++” (≥20% = ++) | 18 (YLVAKLVEV; listed as Homo sapiens) [compound 18] |
| “++++” (≥75% = ++++) | 19 (FMVDNEAIYDI; listed as Homo sapiens) [compound 19] |
| “+++” (≥50 = +++) | 20 (RMIEYFIDV; listed as Homo sapiens) [compound 20] |
| “++” (≥20% = ++) | 21 (VLDELDMEL; listed as Homo sapiens) [compound 21] |

| Peptide exchange (MHC class I binding score, peptide exchange yield) | Substance |
| --- | --- |
| “+++” (≥50 = +++) | 22 (IMEENPGIFAV; listed as Homo sapiens) [compound 22] |
| “+++” (≥50 = +++) | 23 (VLLDDIFAQL; listed as Homo sapiens) [compound 23] |
| “++” (≥20% = ++) | 24 (SLSDGLEEV; listed as Homo sapiens) [compound 24] |
| “+++” (≥50 = +++) | 25 (FLPDEPYIKV; listed as Homo sapiens) [compound 25] |
| “+++” (≥50 = +++) | 26 (ALLELAEEL; listed as Homo sapiens) [compound 26] |
| “+++” (≥50 = +++) | 27 (ILADIVISA; listed as Homo sapiens) [compound 27] |
| “+++” (≥50 = +++) | 28 (QLLDETSAITL; listed as Homo sapiens) [compound 28] |
| “+++” (≥50 = +++) | 29 (KMLGIPISNILMV; listed as Homo sapiens) [compound 29] |
| “+++” (≥50 = +++) | 30 (LILDWVPYI; listed as Homo sapiens) [compound 30] |
| “++” (≥20% = ++) | 31 (YLAPELFVNV; listed as Homo sapiens) [compound 31] |
| “++” (≥20% = ++) | 32 (KLDDLTQDLTV; listed as Homo sapiens) [compound 32] |
| “++” (≥20% = ++) | 33 (VLLSLLEKV; listed as Homo sapiens) [compound 33] |
| “+++” (≥50 = +++) | 34 (ILVEADSLWVV; listed as Homo sapiens) [compound 34] |
| “+++” (≥50 = +++) | 35 (KINDTIYEV; listed as Homo sapiens) [compound 35] |
| “++” (≥20% = ++) | 36 (YVLEDLEVTV; listed as Homo sapiens) [compound 36] |
| “+++” (≥50 = +++) | 38 (FLLEDDIHVS; listed as Homo sapiens) [compound 38] |
| “+++” (≥50 = +++) | 39 (SVAPNLPAV; listed as Homo sapiens) [compound 39] |
| “+++” (≥50 = +++) | 40 (TLLVKVFSV; listed as Homo sapiens) [compound 40] |
| “+++” (≥50 = +++) | 41 (SLMPHIPGL; listed as Homo sapiens) [compound 41] |
| “+++” (≥50 = +++) | 42 (VLLQKIVSA; listed as Homo sapiens) [compound 42] |
| “++” (≥20% = ++) | 43 (VLSSLEINI; listed as Homo sapiens) [compound 43] |

| Peptide exchange (MHC class I binding score, peptide exchange yield) | Substance |
| --- | --- |
| “++” (≥20% = ++) | 44 (ILDPISSGFLL; listed as Homo sapiens) [compound 44] |
| “+++” (≥50 = +++) | 45 (SLWQDIPDV; listed as Homo sapiens) [compound 45] |
| “+++” (≥50 = +++) | 46 (ILTEENIHL; listed as Homo sapiens) [compound 46] |
| “++” (≥20% = ++) | 47 (ILLSVPLLVV; listed as Homo sapiens) [compound 47] |
| “+++” (≥50 = +++) | 48 (ALAELYEDEV; listed as Homo sapiens) [compound 48] |
| “+++” (≥50 = +++) | 49 (YLPAVFEEV; listed as Homo sapiens) [compound 49] |
| “+++” (≥50 = +++) | 50 (SLSELEALM; listed as Homo sapiens) [compound 50] |
| “++++” (≥75% = ++++) | 51 (LLPDLEFYV; listed as Homo sapiens) [compound 51] |
| “++++” (≥75% = ++++) | 52 (FLLAHGLGFLL; listed as Homo sapiens) [compound 52] |
| “++++” (≥75% = ++++) | 53 (KMIETDILQKV; listed as Homo sapiens) [compound 53] |
| “+++” (≥50 = +++) | 54 (SLLEQGKEPWMV; listed as Homo sapiens) [compound 54] |
| “++++” (≥75% = ++++) | 55 (SLLDLETLSL; listed as Homo sapiens) [compound 55] |
| “++++” (≥75% = ++++) | 56 (KLYEGIPVLL; listed as Homo sapiens) [compound 56] |
| “+++” (≥50 = +++) | 57 (TLAELQPPVQL; listed as Homo sapiens) [compound 57] |
| “+++” (≥50 = +++) | 59 (IMEDIILTL; listed as Homo sapiens) [compound 59] |
| “++++” (≥75% = ++++) | 60 (SLTIDGIYYV; listed as Homo sapiens) [compound 60] |
| “++++” (≥75% = ++++) | 61 (FLQGYQLHL; listed as Homo sapiens) [compound 61] |
| “++++” (≥75% = ++++) | 62 (VLLDVSAGQLLM; listed as Homo sapiens) [compound 62] |
| “++” (≥20% = ++) | 63 (YLLPSGGSVTL; listed as Homo sapiens) [compound 63] |
| “++” (≥20% = ++) | 64 (YAAPGGLIGV; listed as Homo sapiens) [compound 64] |
| “+++” (≥50 = +++) | 66 (FLDENIGGVAV; listed as Homo sapiens) [compound 66] |
